Assay results: article PMC4701441, “Directed Evolution of a Highly Specific FN3 Monobody to the SH3 Domain of Human Lyn Tyrosine Kinase” (PLoS ONE, 2016)

Target: T1, GST-Lyn SH3 domain (human, UniProt P07948 63-123)
T1 construct: SH3 domain of human Lyn tyrosine kinase; Plasmid derived from pGEX-2T; also called GST fusion to the SH3 domain of Lyn
Assay: ELISA; competition ELBA: GST-Lyn SH3 domain coated at 5 μg/mL, peptide at 0.1 μM to 40 μM added along with TA8-alkaline phosphatase fusion for 1 h
Conditions: both partners purified

T1 sequence (P07948 63-123): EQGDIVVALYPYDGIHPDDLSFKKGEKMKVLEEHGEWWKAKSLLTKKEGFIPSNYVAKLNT

Does GMPTPPLPPRPANLGERQA bind?
Result: binds
